The record followed here is patent US6797695.

For the experiment, the target named is T1, Recombinant FGF-20 (rat, UniProt Q9EST9 1-212).
T1 construct: Immobilised on a CM5 sensor chip in the assay; also called recombinant rat FGF-20; rFGF-20
Put plainly: SPR (BIACORE 2000), FGF-20 immobilised on CM5, receptor extracellular domain as analyte.

T1 sequence (Q9EST9 other isoform, or with tags, fused parts or gaps limits assumed): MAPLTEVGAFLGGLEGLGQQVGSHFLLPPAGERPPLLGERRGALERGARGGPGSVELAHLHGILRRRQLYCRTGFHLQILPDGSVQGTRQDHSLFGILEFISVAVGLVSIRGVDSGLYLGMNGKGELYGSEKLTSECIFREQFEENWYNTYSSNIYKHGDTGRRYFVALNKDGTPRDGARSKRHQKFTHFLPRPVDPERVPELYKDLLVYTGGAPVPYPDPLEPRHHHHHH

B1: recombinant extracellular domain of FGFR-3c (receptor)
chain: ESLGTEQRVVGRAAEVPGPEPGQQEQLVFGSGDAVELSCPPPGGGPMGPTVWVKDGTGLVPSERVLVGPQRLQVLNASHEDSGAYSCRQRLTQRVLCHFSVRVTDAPSSGDDEDGEDEAEDTGVDTGAPYWTRPERMDKKLLAVPAANTVRFRCPAAGNPTPSISWLKNGREFRGEHRIGGIKLRHQQWSLVMESVVPSDRGNYTCVVENKFGSIRQTYTLDVLERSPHRPILQAGLPANQTAVLGSDVEFHCKVYSDAQPHIQWLKHVEVNGSKVGPDGTPYVTVLKTAGANTTDKELEVLSLHNVTFEDAGEYTCLAGNSIGFSHHSAWLVVLPAEEELVEADEAGSVYAG
For orientation: Kd means the equilibrium constant for the complex coming apart. A word on the koff: it is the rate constant with which the complex falls apart. What is called kon is a measure of how fast the partners come together. Turning to B1, the equilibrium dissociation constant (Kd) amounted to 217 nM, the koff is 0.0247 s⁻¹ and the kon worked out at 115000 M⁻¹ s⁻¹.
